Data on 1 molecule can be found in article PMC6300356, “DNA translocation mechanism of an XPD family helicase”.

The data set has as its target T1, DinG (Escherichia coli, UniProt P27296 1-716).
T1 sequence: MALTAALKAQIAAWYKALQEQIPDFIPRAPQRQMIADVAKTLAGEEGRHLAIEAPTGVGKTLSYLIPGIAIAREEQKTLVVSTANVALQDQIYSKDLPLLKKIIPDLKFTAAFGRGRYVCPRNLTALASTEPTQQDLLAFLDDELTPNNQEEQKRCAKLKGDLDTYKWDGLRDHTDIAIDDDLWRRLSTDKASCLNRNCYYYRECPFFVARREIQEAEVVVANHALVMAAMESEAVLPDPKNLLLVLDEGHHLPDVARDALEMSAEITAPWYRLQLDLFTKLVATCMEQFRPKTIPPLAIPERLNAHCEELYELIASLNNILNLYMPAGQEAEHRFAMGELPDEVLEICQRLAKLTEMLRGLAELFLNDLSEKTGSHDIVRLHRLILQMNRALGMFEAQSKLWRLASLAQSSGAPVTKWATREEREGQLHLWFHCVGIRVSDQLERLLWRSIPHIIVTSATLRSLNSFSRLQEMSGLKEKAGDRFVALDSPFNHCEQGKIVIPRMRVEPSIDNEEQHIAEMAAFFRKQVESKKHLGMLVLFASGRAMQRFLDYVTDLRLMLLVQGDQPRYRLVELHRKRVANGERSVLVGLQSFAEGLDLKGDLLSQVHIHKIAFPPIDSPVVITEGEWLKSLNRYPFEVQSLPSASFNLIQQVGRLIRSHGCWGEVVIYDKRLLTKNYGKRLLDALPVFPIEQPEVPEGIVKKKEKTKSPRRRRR
The data set can be described thus: X-ray crystallography (2.5 A); binary complex, no nucleotide; MST: 25 mM Tris pH 8.0, 200 mM NaCl, 1 mM DTT, 5% glycerol, 25 C, 10 nM ssDNA. The settings on record: protein: recombinant; tags: His6-MBP-TEV N-terminal, removed by TEV.

For the molecule TTTTTTTTTTTT (ssDNA) [dT12 (12 base oligo-dT)], the binding result is given as “binds”.
